# Source: patent US20240173425A1, “HUMAN CD33 ANTIBODIES AND GLUCOCORTICOID CONJUGATES” (Eli Lilly and Company, priority 2022, published 2024)
# B1: Gemtuzumab: Gemtuzumab (hIgG4PAA), comparator anti-CD33 antibody in the internalization assay (antibody, chains of the INN, looked up, V domains shown)
# VH: EVQLVQSGAEVKKPGSSVKVSCKASGYTITDSNIHWVRQAPGQSLEWIGYIYPYNGGTDYNQKFKNRATLTVDNPTNTAYMELSSLRSEDTAFYYCVNGNPWLAYWGQGTLVTVSS
# VL: DIQLTQSPSTLSASVGDRVTITCRASESLDNYGIRFLTWFQQKPGKAPKLLMYAASNQGSGVPSRFSGSGSGTEFTLTISSLQPDDFATYYCQQTKEVPWSFGQGTKVEVK
# modifications: hIgG4PAA
# notes: Gemtuzumab (hIgG4PAA), comparator anti-CD33 antibody in the internalization assay
# Tested on: primary human monocyte cells
# Assay: Antibody internalization (pHrodo Red, flow cytometry)
# Type: cell-based
# Conditions: pHrodo-labeled antibodies 10 μg/mL, 2 hours at 37° C.
# Experimental: Exemplified anti-human CD33 antibodies were labeled with pHrodo™ Red, amine-reactive dye (Thermo Fisher, P36014). The pH-sensitive dye was a non-fluorescent when outside the cells but fluoresces brightly in acidic low-pH lysosomes. This property allows visualization and qualification of the internalization of an antibody by flow cytometry. Human PBMCs (500 K/well) were incubated on ice in FACS buffer for 30 min, to quiesce baseline internalization. Cells were stained with pHrodo-labeled antibodies (10 μg/mL) in FACS buffer for 1 hour on ice then transferred to 37° C. for 2 hours. Cells were then stained with the remaining panel of surface detection marker: CD45 mAb (clone HI30); CD11b (clone ICRF44); CD14 (clone M5E2).
molecule,measurement,setting,value
B1,% Internalization,,50.55 ± 2.899%
same,% Internalization,listed as Gemtuzumab (hIgG4PAA),about 50%
